Measurements published in patent US20250027068.

B1: PRT-536 (protein)
chain: MANQEIRYSGDSEWANKKVWVYGITPAEEGAWLYSTYYLPWKKEYGWYDCNKRNPTADGMMCWAASASNLMHWWIAQNKRYIDLYGDRYKGPDKINFNGEQMFDVKEYIDPLDKPQESDIFQCFIDKSFADLSTKHEAGKGDEGINWFIHGIIPSYPAHGPTPVKLRYPYNPAGYFKDVFPRGDGVVLGGNNGDFKELGKERFNETIKDALANKKGIGLSIGPVNVRKSHVETMWGAEFDENGDVSYIYMADNNDRWGVGCIRLQIVYVEGATYTCYKTEIIPSDRPIPINRLVTVELGEEYWKQTNLEHHHHHH
B2: PRT-562 (protein)
chain: MANQEIRYSKATPSHITSVWTKGVTPPEQFIQNEDVLHAPYIANQGWYDITKTFNGKDDLLCGAATAGNMLHWWFDQNKEQIENYLKKHPEKQKINFNGEQMFDVKEAIDTKDSQTNSALFSYFKDKAFPYLSTKHLGVFPDHVIDMFINGYRLSLTNHGPTPVKEQTKDPRGGIFDAVFTRGDQSKLLTSRHDFKEKTLNEISQLIKQELTEGKALGLSHTYANVRINHVINLWGADFNAEGNLEAIYVTDSDSNASIGMKKYYVGVNSAGKVAISAKEIEGDNIGAQVLGLFTLSTGQDIWQQTNLEHHHHHH
B3: PRT-530 (protein)
chain: MANQEIRYSEETPKTITSVWTKGVTPPTDFIQNEDVLHAPYIANQGWYDITKTFNGKDDLLCGAATAGNMLHWWFDQNKEEIENYLKKHPEKQKINFNGEQMFDVKEAIDTKDSQTDSALFEYFKDKAFPYLSTKHLGVMPDLVLDMFINGYYLSVGKHGPTPVKRGTKDPRGGIFDAVFTRGDQSKLLTARHDFKEKTLNEISDLIKQELTEGKALALSHTYANVRINHVINLWGADFNSEGNLEAIYVTDSDSNASIGMKKYYVGVNAAGKVAISAKEIEGDNIGAQVLGLFTLSTGQDIWEQTNLEHHHHHH
B4: PRT-540 (protein)
chain: MANQEIRYSKNENPNVTIKWVHGIGEPTQAEKEKIEFYWYETNTTKFFNNRKVTHLGDSNQCWAKTASNMLHWWFVQNKENINKYIEKKNITGKINFNGEQMFDVKEGIDDNQEKEKSYIANTFRTKKAHNLSTKHKGDYIINGLAWYLYGLNNFKNAHGPTPVKKKPKFYGPALFKDVFNRGDGNTPIIEETDFKEYTKKEFEDTLSEALDSKKAIGINIYGSNVDYGHAITLWGAAFDEDENIIAIYVVDNNFKFENRIFPYGIWYEKEGRPYLFNYEINSFVKNRYVGEITTLDKGEAQWQETNLEHHHHHH
B5: PRT-41 (protein)
chain: MANQEIRYSEVTPYHVTSVWTKGVTPPANFTQGEDVFHAPYVANQGWYDITKTFNGKDDLLCGAATAGNMLHWWFDQNKDYIDRYLEEHPEKQKINFNGEQMFDVKEAIDTKNSQLDSKLFEYFKEKAFPYLSTKHLGVFPDLVLDMFINGYRLSLTNHGPTPVKEGSKDPRGGIFDAVFTRGDQSKLLTSRHDFKEKNLKEISDLIKKELTEGKALGLSHTYANVRINHVINLWGADFDSNGNLKAIYVTDSDSNASIGMKKYFVGVNSAGKVAISAKEIKEDNIGAQVLGLFTLSTGQDSWNQTN
B6: PRT-287 (protein)
chain: MVTSVWTKGVTPPAKFTQGEDVFHAPYVANQGWYDITKEFNGKDDLLCGAATAGNMLHWWFDQNKEKIEAYLKKHPDKQKIMFGDQELLDVRKVINTKGDQTNSELFNYFRDKAFPNLSARRIGVMPDLVLDMFINGYYLNVYKTQTTDVNRTYQEKDRRGGIFDAVFTRGDQSKLLTSRHDFKEKNLKEISDLIKKELTEGKALGLSHTYANVRIGHVINLWGADFDSNGNLKAIYVTDSDSNASIGMKKYGVGVNSAGKVAISAKEIKEDNIGAQVLGLFTLSTGQDSWNQTN
B7: PRT-546 (protein)
chain: MANQEIRYSEETPKTITSVWTKGVTPPTDFIKNEDVLHAPYIANQGWYDITKTFNGKDDLLCGAATAGNMLHWWFDQNKEEIENYLKKHPEKQKINFNGEQMFDVKEAIDTKDSQTDSALFEYFKDKAFPYLSTKHLGVFPDHVIDMFINGYRLSLTNHGPTPVKRGTKDPRGGIFDAVFTRGDQSKLLTSRHDFKEKTLNEISDLIKQELTEGKALGLSHTYANVRINHVINLWGADFNSEGNLEAIYVTDSDSNASIGMKKYYVGVNSAGKVAISAKEIEGDNIGAQVLGLFTLSTGQDIWEQTNLEHHHHHH
B8: PRT-592 (protein)
chain: MANQEIRYSEETPSTITSVWTKGVTPPTDFIQNEDVLHAPYIANQGWYDITKTFNGKDDLLCGAATAGNMLHWWFDQNKEQIENYLKKHPEKQKINFNGEQMFDVKEAIDTKNSQTDSALFEYFKDKAFPYLSTKHLGVFPDHVIDMFINGYRLSLTNHGPTPVKRGTKDPRGGIFDAVFTRGDQSKLLTSRHDFKEKTLNEISDLIKQELTEGKALGLSHTYANVRINHVINLWGADFNAEGNLEAIYVTDSDSNASIGMKKYYVGVNSAGKVAISAKEIEGDNIGAQVLGLFTLSTGQDIWNQTNLEHHHHHH
B9: PRT-551 (protein)
chain: MANQEIRYSEETPSTITSVWTKGVTPPTDFIQNEDVLHAPYIANQGWYDITKTFNGKDDLLCGAATAGNMLHWWFDQNKEEIENYLKKHPEKQKINFNGEQMFDVKEAIDTKDSQTDSALFEYFKDKAFPYLSTKHLGVFPDHVIDMFINGYRLSLTNHGPTPVKRGTKDPRGGIFDAVFTRGDQSKLLTARHDFKEKTLNEISDLIKQELTEGKALGLSHTYANVRINHVINLWGADFNSEGNLEAIYVTDSDSNASIGMKKYYVGVNAAGKVAISAKEIEGDNIGAQVLGLFTLSTGQDIWNQTNLEHHHHHH
B10: PRT-279 (protein)
chain: MVTSVWTKGVTPPTDFIYGEDVLHAPYKAGQGWYDITKLFNGKDNLLCGAATAGNMLHWWFDQNKEQIENYLKKHPEKQKIIFNNQELFDLKAAIDTKDSQLDSKLFEYFLEKAFPYLSTKHLGVFPDHVIDMFINGYRLSLTNHGPTPVKRGSKDKRGGIFDAVFTRGVQSKLLTNRHDLKNKTLKEISDLIKQELTEGKALGISHTYANVRINHVINLWGADFDAEGNLEAIAVTDSDTNASIGMKKYFVGVNSSGKVAISAKEIEEDNIGAQVLGLFTLSTGQDIWNQTN

The proteins below were run against pooled human IgG.
B1 was tested, and the Enzyme Activity Endpoint Assay: Fab′2 was 0 ng/µL, the Enzyme Activity Endpoint Assay: Fc was 0 ng/µL and the Enzyme Activity Endpoint Assay: IgG was 1530 ng/µL. The Enzyme Activity Endpoint Assay: scIgG was 0 ng/µL. B2 showed an Enzyme Activity Endpoint Assay: Fab′2 of 705 ng/µL, an Enzyme Activity Endpoint Assay: Fc of 380 ng/µL and an Enzyme Activity Endpoint Assay: IgG of 0 ng/µL. The Enzyme Activity Endpoint Assay: scIgG was 238 ng/µL. B3 gave an Enzyme Activity Endpoint Assay: Fab′2 of 87 ng/µL, an Enzyme Activity Endpoint Assay: Fc of 225 ng/µL and an Enzyme Activity Endpoint Assay: IgG of 74 ng/µL. It also gave an Enzyme Activity Endpoint Assay: scIgG of 687 ng/µL. In the case of B4, the Enzyme Activity Endpoint Assay: Fab′2 is reported as 0 ng/µL, the Enzyme Activity Endpoint Assay: Fc is reported as 0 ng/µL and the Enzyme Activity Endpoint Assay: IgG is reported as 1490 ng/µL. It also gave an Enzyme Activity Endpoint Assay: scIgG of 0 ng/µL. B5 showed an Enzyme Activity Endpoint Assay: Fab′2 of 24 ng/µL, an Enzyme Activity Endpoint Assay: Fc of 94 ng/µL and an Enzyme Activity Endpoint Assay: IgG of 19 ng/µL. For the same protein, the Enzyme Activity Endpoint Assay: scIgG was 50 ng/µL. Work on B6 yielded an Enzyme Activity Endpoint Assay: Fab′2 of 700 ng/µL, an Enzyme Activity Endpoint Assay: Fc of 392 ng/µL and an Enzyme Activity Endpoint Assay: IgG of 0 ng/µL. For the same protein, the Enzyme Activity Endpoint Assay: scIgG was 0 ng/µL. Protein B7 has an Enzyme Activity Endpoint Assay: Fab′2 of 722 ng/µL, an Enzyme Activity Endpoint Assay: Fc of 390 ng/µL and an Enzyme Activity Endpoint Assay: IgG of 0 ng/µL. It also gave an Enzyme Activity Endpoint Assay: scIgG of 236 ng/µL. With B8 the Enzyme Activity Endpoint Assay: Fab′2 was 664 ng/µL, the Enzyme Activity Endpoint Assay: Fc was 359 ng/µL and the Enzyme Activity Endpoint Assay: IgG was 0 ng/µL. It also gave an Enzyme Activity Endpoint Assay: scIgG of 0 ng/µL. For B9, the Enzyme Activity Endpoint Assay: Fab′2 was 444 ng/µL, the Enzyme Activity Endpoint Assay: Fc was 217 ng/µL and the Enzyme Activity Endpoint Assay: IgG was 0 ng/µL. The Enzyme Activity Endpoint Assay: scIgG was 0 ng/µL. B10 gave an Enzyme Activity Endpoint Assay: Fab′2 of 574 ng/µL, an Enzyme Activity Endpoint Assay: Fc of 359 ng/µL and an Enzyme Activity Endpoint Assay: IgG of 48 ng/µL. It also gave an Enzyme Activity Endpoint Assay: scIgG of 0 ng/µL.
